The text below walks through data of the supplement of paper PMC9170038.

The subject of this data set is MS2 coat protein. Kind of data set: apparent KD of MS2 coat protein; designed switch direction (-1 OFF switch, 1 ON switch): -1; higher = weaker reporter binding. Summed up: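 The reported apparent KD is a per-design median over clusters, from curve fits of normalised cluster fluorescence. Protein titrations used SNAP-549-labelled MS2 coat protein, doubled from 0.7 or 1.5 nM to 3 µM, in Tris-HCl pH 7.5 buffer with KCl, MgCl2, BSA, DTT, tRNA and Tween-20, with no input, 200 uM small-molecule ligand, or an oligonucleotide input. The RNA switches were transcribed on Illumina chips by stalled E. coli RNA polymerase.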

Where [1] appears, read: input ligand: microRNA oligo, concentration not stated.
Setting [2] is: Eterna round: R95, input ligand: FMN 200 uM.
Where [3] appears, read: Eterna round: R95, input ligand: microRNA oligo, concentration not stated.
Where [4] appears, read: Eterna round: R95, input ligand: none.

Turning to “AUUUAAUUUAAUAAGAUCACAUGAGGAUCACCCAUGUUAUAAUAGGAUAUCAGCUCGUGUAGAGCUGAGAAGGAUUAUAACAUG [ExNG3/9-A3] (Eterna round: R96, puzzle: Exclusion NG 3)”, the “apparent KD of MS2 coat protein” value under setting [1] was 22.2 nM.

For the sequence “AUUUACAAGCUAAGAUCCUACAUGAGGAUCACCCAUGUGGUCCGGUGACGUGAGUCACCGGACUUAGCUCGUCUUGA [salish99_S_TOV1_R5_082] (Eterna round: R97, puzzle: Sensor, turn-off variant 1)”, the “apparent KD of MS2 coat protein” value reads like this: (input ligand: FMN 200 uM) 32.9 nM; (input ligand: none) 36.8 nM.

On to “AUUUACAAGCUAAGAUCCUACAUGAGGAUCACCCAUGUGGUCCGGUGACGUGAGUCACCGGACUUAGCUCGUCUUGC [salish99_S_TOV1_R5_084] (Eterna round: R97, puzzle: Sensor, turn-off variant 1)”, for which the “apparent KD of MS2 coat protein” value is 37.2 nM (input ligand: FMN 200 uM) and 38.1 nM (input ligand: none).

Take “CAAAAGCUAGGAUAUACACAAAACGCCUGCAUGCAAACAUCACAUGAGGAUCACCCAUGUAGAAGGAGCGGAAA [EX2 A.21] (Eterna round: R97, puzzle: Exclusion 2)”: the “apparent KD of MS2 coat protein” value (input ligand: FMN 200 uM) turned out to be 22.1 nM and the “apparent KD of MS2 coat protein” value (input ligand: none) is 19.1 nM.

Consider “CAAAAGGUAGGAUAUACGAAAAAAAAGGGUAGAAAAAAAACACAUGAGGAUCACCCAUGUAGAAGGACCAAAAU [salish99_ex2_r3_054] (puzzle: Exclusion 2)”, for which the “apparent KD of MS2 coat protein” value under setting [2] was determined as 90.9 nM, the “apparent KD of MS2 coat protein” value under setting [3] was found to be 24.3 nM and the “apparent KD of MS2 coat protein” value under setting [4] was determined as 22.5 nM.

For the sequence “CAAAGACCGGCAGGAUAUUGACCCAGAACAUGAGGAUCACCCAUGUCAACAAGGUUGGACCAGGGCGAGAAGGGCCACGCCAAA [Eternabot solution 22] (Eterna round: R96, puzzle: Exclusion NG 2)”, the “apparent KD of MS2 coat protein” value stood at 12.3 nM (input ligand: FMN 200 uM), 12.5 nM under setting [1] and 22.1 nM (input ligand: none).

On to “CAAAUCAGGCGAGGAUAUCCGAAAGGAAGUGUAGGAGAAGGCGCGAAAUAUAAAACAUGAGGAUCACCCAUGUCGUCCCGUGUG [PowerStrip EXNG 1.21] (Eterna round: R96, puzzle: Exclusion NG 1)”, for which the “apparent KD of MS2 coat protein” value is, setting by setting: (input ligand: FMN 200 uM) 169 nM; under setting [1], 117 nM; (input ligand: none) 130 nM.

As for “CACCGUUAGUGAGGAUAUCUUACAUGAGGAUCACCCAUGUAAUAAAUGAGAAUUUCGGAUGUAUUAGAGAAGGCACAAAUCGGC [Ostricism 57 - Jieux - Exclusion NG 2] (Eterna round: R96, puzzle: Exclusion NG 2)”, under setting [1], the “apparent KD of MS2 coat protein” value was determined as 17.7 nM.

Consider “CACCUGAAGACAGGAUAUCAUACAUGAGGAUCACCCAUGUAAUAAAUGAGAAUUUCGAAUGUAAUUGAGAAGGGUCAAUAAGGC [Ostricism 96 - Jieux - Exclusion NG 2] (Eterna round: R96, puzzle: Exclusion NG 2)”, for which the “apparent KD of MS2 coat protein” value is, setting by setting: (input ligand: FMN 200 uM) 58.7 nM; under setting [1], 31.3 nM; (input ligand: none) 29.2 nM.

For the sequence “CAGAGCAGACGGAGAUCCAACAUGAGGAUCACCCAUGUCUCAAAAGCUUUUUGCUCGUCUUAUCCUCCUCUGUUCAC [Esquitian 3] (Eterna round: R97, puzzle: Sensor, turn-off variant 1)”, the “apparent KD of MS2 coat protein” value is, setting by setting: (input ligand: FMN 200 uM) 26 nM; (input ligand: none) 30.4 nM.

Regarding “CAGAGCUUUUACUCGUCUUACAUGAGGAUCACCCAUGUCUCCUAGUGGGUAAAAUAUUAAGAAGAAAUUCUUAAUAA [jun14#1] (Eterna round: R97, puzzle: Sensor, turn-off variant 1)”, the “apparent KD of MS2 coat protein” value came out at 125 nM (input ligand: FMN 200 uM) and 145 nM (input ligand: none).

Turning to “CAGCCAAGUGUGAGGAUAUGGCGAUUGCAUUGACGUCAGAAGGCACAUGAGGAUCACCCAUGUGAGGUGGAUGA [Eternabot (L2) Solution 25] (Eterna round: R97, puzzle: Brourd's mod of Exclusion 4)”, the “apparent KD of MS2 coat protein” value worked out at 45.8 nM (input ligand: FMN 200 uM) and 755 nM (input ligand: none).

Take “CAGCCUCAGGUUAGGAUAUACGCGUGGCCGAAGGAGUAGAAGGGACAUGAGGAUCACCCAUGUGGGUUCAAAUG [Onsoisgeso] (puzzle: Brourd's mod of Exclusion 4)”: the “apparent KD of MS2 coat protein” value worked out at 292 nM under setting [2], 151 nM under setting [3] and 270 nM under setting [4].

On to “CAGCGACAUGAGGAUCACCCAUGUGGCUUCGUUCCCGCUGGCAAGGAUAUCCAGUCUUCGUGAGAGGAGAAGGUGCAAAAUAAG [Atveso] (Eterna round: R96, puzzle: Exclusion NG 3)”, for which the “apparent KD of MS2 coat protein” value (input ligand: FMN 200 uM) amounted to 65.2 nM, the “apparent KD of MS2 coat protein” value under setting [1] amounted to 31.7 nM and the “apparent KD of MS2 coat protein” value (input ligand: none) was 49.3 nM.

For “CAGGAGUCAGGAUAUCGUUACCACGGAGUUGCUGUGCAUAACGAGAAGGGACAUGAGGAUCACCCAUGUGCCUC [Eternabot (L1) Solution 98] (Eterna round: R97, puzzle: Exclusion 4)”, the “apparent KD of MS2 coat protein” value was 57.6 nM (input ligand: FMN 200 uM) and 22.3 nM (input ligand: none).

For the sequence “CAGGGCAUGCGAGGAUAUAGCAACAUGAGGAUCACCCAUGUAUAAGGGUGUCCAAGGCAUGCGCGCUAGAAGGCGCUGGUUCUC [Gemadi] (Eterna round: R96, puzzle: Exclusion NG 2)”, the “apparent KD of MS2 coat protein” value turned out to be 343 nM (input ligand: FMN 200 uM), 64.6 nM under setting [1] and 116 nM (input ligand: none).

For the sequence “CAGUACUGAGGAUAUACAUGAGGAUCACCCAUGUGCUCCAGCUAGGAAACUAGCAAAAGUAGAAGGCAGUACUG [828 mod 2 m8] (Eterna round: R97, puzzle: Exclusion 3)”, the “apparent KD of MS2 coat protein” value by setting is: (input ligand: FMN 200 uM) 3960 nM; (input ligand: none) 101 nM.

In the case of “CAGUACUGAGGAUAUACAUGAGGAUCACCCAUGUGGUCCAGCUAGGAAACUAGCACGUGUAGAAGGCAGUACUG [Ex3: 840] (Eterna round: R96, puzzle: Exclusion 3)”, the “apparent KD of MS2 coat protein” value runs as follows: (input ligand: FMN 200 uM) 58.3 nM; under setting [1], 55.3 nM; (input ligand: none) 45.7 nM.

On to “CAGUACUGAGGAUAUACAUGAGGAUCACCCAUGUGUAGAUGAAAAUUAAUUUUAUUAUGUAGAAGGCGGUGCUG [JR_Ex3_Sub045] (Eterna round: R97, puzzle: Exclusion 3)”, for which the “apparent KD of MS2 coat protein” value reads like this: (input ligand: FMN 200 uM) 85.1 nM; (input ligand: none) 23.3 nM.

For the sequence “CAGUACUGAGGAUAUACAUGAGGAUCACCCAUGUGUUCCAGCUAGGAAACUAGCAAAAGUAGAAGGCAGUUCUG [salish99_ex3_r3_099x] (puzzle: Exclusion 3)”, the “apparent KD of MS2 coat protein” value under setting [3] amounted to 19.3 nM.

Consider “CAGUACUGAGGAUAUACAUGAGGAUCACCCAUGUGUUCCAGCUAGGAUACUAGCAAAAGUAGAAGGCAGUACUG [salish99_ex3_r3_095x] (Eterna round: R96, puzzle: Exclusion 3)”, for which, under setting [1], the “apparent KD of MS2 coat protein” value came out at 20.9 nM.

In the case of “CAGUACUGAGGAUAUACAUGAGGAUCACCCAUGUGUUCCAGCUAGGAUACUAGCAAAAGUAGAAGGCAGUACUG [salish99_ex3_r3_095x] (puzzle: Exclusion 3)”, the “apparent KD of MS2 coat protein” value reads like this: under setting [2], 484 nM; under setting [3], 30.4 nM; under setting [4], 24 nM.

Turning to “CAGUACUGAGGAUAUACAUGAGGAUCACCCAUGUGUUCCAGCUUGGAAACUAGCAAAAGUAGAAGGCAGUACUG [salish99_ex3_r3_097x] (puzzle: Exclusion 3)”, under setting [3], the “apparent KD of MS2 coat protein” value came out at 16.6 nM.

Regarding “CAGUAUCUAGGAUAUACGCUGGGUACUAUUCUCAAGUCAGGACAUGAGGAUCACCCAUGUAGAAGGAGAAGCAU [EX2 A.28] (Eterna round: R97, puzzle: Exclusion 2)”, the “apparent KD of MS2 coat protein” value came to 32.5 nM (input ligand: FMN 200 uM) and 34 nM (input ligand: none).

As for “CAGUGCUGACGGAGAUCCAACAUGAGGAUCACCCAUGUCUCAAAAGCUUUUUGCUCGUCUUAUCCUCCUCAGUACUC [Mat - Sensor, turn-off var - Eli Mod - D57] (Eterna round: R97, puzzle: Sensor, turn-off variant 1)”, the “apparent KD of MS2 coat protein” value is, setting by setting: (input ligand: FMN 200 uM) 14.6 nM; (input ligand: none) 19.2 nM.

Take “CAUGUCCAACGAGGAUAUGGGAAAGGAAGUGUACCAGAAGGCGUACGGACAUGAGGAUCACCCAUGUCGCGCGGCGCGAUGUGG [PowerStrip EXNG 1.1] (Eterna round: R96, puzzle: Exclusion NG 1)”: the “apparent KD of MS2 coat protein” value came to 47.6 nM (input ligand: FMN 200 uM), 28.3 nM under setting [1] and 41.5 nM (input ligand: none).

Consider “CAUUAUUAUCGAGGAUAUCCUAUUGAAAUUCUAGGAGAAGGCGGACUCAACAUGAGGAUCACCCAUGUGGGACGGAUGCUAGGG [Ex NG1 #29] (Eterna round: R96, puzzle: Exclusion NG 1)”, for which the “apparent KD of MS2 coat protein” value reads like this: (input ligand: FMN 200 uM) 15.9 nM; under setting [1], 19.6 nM; (input ligand: none) 17.8 nM.

For the sequence “CAUUAUUAUCGAGGAUAUCCUAUUGAAAUUCUGGGAGAAGGCGGACUCAACAUGAGGAUCACCCAUGUGAGACGGAUGCUAGGG [Ex NG1 #27] (Eterna round: R96, puzzle: Exclusion NG 1)”, the “apparent KD of MS2 coat protein” value under setting [1] came out at 15 nM.

Consider “CCAACAAGCUUUUUGCUCGACAUGAGGAUCACCCAUGUAAAAUGGGUAAAUUUAAAUUUAAAUUUAUUUAAAUUUGG [-16.3, -42.5 kcal, A 35%] (Eterna round: R97, puzzle: Sensor, turn-off variant 1)”, for which the “apparent KD of MS2 coat protein” value is, setting by setting: (input ligand: FMN 200 uM) 505 nM; (input ligand: none) 728 nM.

Regarding “CCAAGAAUAGGAUAUACACCAUGUCAGCUUAUAUACAACGCACAUGAGGAUCACCCAUGUAGAAGGGUUCUCUC [Exclusion-2-#2] (Eterna round: R97, puzzle: Exclusion 2)”, the “apparent KD of MS2 coat protein” value (input ligand: FMN 200 uM) turned out to be 571 nM and the “apparent KD of MS2 coat protein” value (input ligand: none) is 823 nM.

Turning to “CCAAGCUGUGUGAGGAUAUGCUGGUCCUUGGAUCAGCAGAAGGCACAUGAGGAUCACCCAUGUGAAAAGCUUGG [Mat - Exclusion 4 - JL Mod - D92] (puzzle: Brourd's mod of Exclusion 4)”, the “apparent KD of MS2 coat protein” value under setting [3] was 13.8 nM.
